Measurements: article PMC5840378, “Cytochrome c speeds up caspase cascade activation by blocking 14-3-3ε-dependent Apaf-1 inhibition” (Cell Death & Disease, 2018)

Tests used:
Test in all cases: ITC; Auto-ITC200, 25 °C; 2-μL injections of 300 μM Cc into the cell with 20 μM 14-3-3ε species or peptide; 10 mM sodium phosphate pH 7.4
Settings in all cases: both partners purified
14-3-3ε FL E92K = target: T1, 14-3-3ε FL E92K (UniProt P62258 1-255, E92K)
T1 construct: 14-3-3ε full length with E92K; source: E. coli BL21 (DE3), purified (Ni Sepharose); mutant obtained from Mutagenex Inc
T1 sequence (looked up): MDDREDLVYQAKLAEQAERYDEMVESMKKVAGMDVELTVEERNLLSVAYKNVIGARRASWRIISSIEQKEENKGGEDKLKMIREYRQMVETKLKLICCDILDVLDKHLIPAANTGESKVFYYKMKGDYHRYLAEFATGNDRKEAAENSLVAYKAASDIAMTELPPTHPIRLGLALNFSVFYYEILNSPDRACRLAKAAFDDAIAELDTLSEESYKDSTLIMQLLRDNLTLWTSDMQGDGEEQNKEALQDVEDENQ

[1] = target: T2, 14-3-3ε full length (14-3-3ε FL), recombinant (UniProt P62258 1-255)
T2 construct: 14-3-3ε (14-3-3 protein epsilon), full length, cloned NdeI-XhoI into pET-28a; Homodimer by ultracentrifugation and light scattering; The printed cloning primers seem to add a Met before Met1 and a Glu after the last residue; also called 14-3-3ε FL WT; source: E. coli BL21 (DE3), purified (Ni Sepharose)
T2 sequence (looked up): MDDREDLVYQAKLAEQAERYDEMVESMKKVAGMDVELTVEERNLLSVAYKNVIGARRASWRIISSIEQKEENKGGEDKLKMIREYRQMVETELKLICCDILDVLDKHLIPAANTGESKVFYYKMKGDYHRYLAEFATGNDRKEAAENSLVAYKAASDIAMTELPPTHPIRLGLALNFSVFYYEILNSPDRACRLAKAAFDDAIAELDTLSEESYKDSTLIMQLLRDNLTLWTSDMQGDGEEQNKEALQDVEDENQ

14-3-3ε FL S187D = target: T3, 14-3-3ε FL S187D (UniProt P62258 1-255, S187D)
T3 construct: 14-3-3ε full length with S187D; source: E. coli BL21 (DE3), purified (Ni Sepharose); mutant obtained from Mutagenex Inc
T3 sequence (looked up): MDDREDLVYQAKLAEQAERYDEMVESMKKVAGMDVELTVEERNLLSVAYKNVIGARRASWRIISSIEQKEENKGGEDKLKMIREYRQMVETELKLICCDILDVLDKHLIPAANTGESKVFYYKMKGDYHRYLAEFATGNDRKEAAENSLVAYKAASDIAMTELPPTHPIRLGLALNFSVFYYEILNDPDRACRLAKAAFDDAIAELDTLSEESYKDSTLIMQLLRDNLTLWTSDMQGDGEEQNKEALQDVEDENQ

14-3-3ε FL D99K = target: T4, 14-3-3ε FL D99K (UniProt P62258 1-255, D99K)
T4 construct: 14-3-3ε full length with D99K; source: E. coli BL21 (DE3), purified (Ni Sepharose); mutant obtained from Mutagenex Inc
T4 sequence (looked up): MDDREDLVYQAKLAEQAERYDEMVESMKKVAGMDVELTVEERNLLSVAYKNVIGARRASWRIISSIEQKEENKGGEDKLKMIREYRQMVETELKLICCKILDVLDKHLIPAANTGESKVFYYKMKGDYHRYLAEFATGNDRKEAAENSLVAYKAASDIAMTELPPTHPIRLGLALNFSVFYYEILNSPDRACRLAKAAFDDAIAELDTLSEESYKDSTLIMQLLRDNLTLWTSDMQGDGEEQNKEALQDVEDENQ

14-3-3ε FL K50E = target: T5, 14-3-3ε FL K50E (UniProt P62258 1-255, K50E)
T5 construct: 14-3-3ε full length with K50E; source: E. coli BL21 (DE3), purified (Ni Sepharose); mutant obtained from Mutagenex Inc
T5 sequence (looked up): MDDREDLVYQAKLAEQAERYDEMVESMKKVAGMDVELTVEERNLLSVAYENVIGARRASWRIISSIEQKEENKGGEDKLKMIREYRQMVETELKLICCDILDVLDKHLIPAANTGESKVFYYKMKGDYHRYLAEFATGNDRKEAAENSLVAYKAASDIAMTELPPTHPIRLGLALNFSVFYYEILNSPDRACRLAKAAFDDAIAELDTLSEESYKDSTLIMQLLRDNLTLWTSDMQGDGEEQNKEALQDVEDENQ

[2] = target: T6, 14-3-3ε C-terminal peptide (14-3-3ε_(234-255)) (UniProt P62258 234-255)
T6 construct: 14-3-3ε, C-terminal tail, residues 234-255; also called non-acetylated peptide; C-terminal tail of 14-3-3ε; source: bought: Genosphere Biotechnologies (France)
T6 peptide (looked up): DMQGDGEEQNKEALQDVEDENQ

14-3-3ε FL D21K = target: T7, 14-3-3ε FL D21K (UniProt P62258 1-255, D21K)
T7 construct: 14-3-3ε full length with D21K; source: E. coli BL21 (DE3), purified (Ni Sepharose); mutant obtained from Mutagenex Inc
T7 sequence (looked up): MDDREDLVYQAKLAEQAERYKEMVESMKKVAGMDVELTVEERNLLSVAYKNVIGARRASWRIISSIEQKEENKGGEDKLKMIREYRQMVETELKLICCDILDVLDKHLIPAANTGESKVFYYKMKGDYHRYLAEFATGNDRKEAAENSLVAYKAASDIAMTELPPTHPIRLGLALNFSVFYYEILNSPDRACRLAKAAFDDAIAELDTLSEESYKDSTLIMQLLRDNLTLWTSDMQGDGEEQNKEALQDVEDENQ

14-3-3ε FL S59E = target: T8, 14-3-3ε FL S59E (UniProt P62258 1-255, S59E)
T8 construct: 14-3-3ε full length with S59E; source: E. coli BL21 (DE3), purified (Ni Sepharose); mutant obtained from Mutagenex Inc
T8 sequence (looked up): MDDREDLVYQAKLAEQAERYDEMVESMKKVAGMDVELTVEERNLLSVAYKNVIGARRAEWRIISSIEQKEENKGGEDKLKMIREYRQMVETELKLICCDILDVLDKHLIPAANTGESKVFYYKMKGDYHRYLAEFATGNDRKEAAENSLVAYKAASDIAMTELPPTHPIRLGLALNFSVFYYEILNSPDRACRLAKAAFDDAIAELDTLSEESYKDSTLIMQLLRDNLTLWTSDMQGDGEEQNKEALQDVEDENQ

stoichiometry N (14-3-3ε FL E92K): 1
Kd [1]: 2300 nM
stoichiometry N [1]: 2 Cc per 14-3-3ε FL homodimer
binding result (14-3-3ε FL S187D): binds
binding result (14-3-3ε FL D99K): binds
stoichiometry N (14-3-3ε FL K50E): 1
stoichiometry N [2]: 1
stoichiometry N (14-3-3ε FL D21K): 1
stoichiometry N (14-3-3ε FL S59E): 1
B1: cytochrome c (Cc), recombinant (natural protein)
chain: not shown
modifications: heme group; 15N-labelled for the 2D NMR titrations
notes: Met80 is M81 in P99999); Reduced with sodium ascorbate in the NMR experiments; also called hemeprotein; reduced Cc; source: E. coli BL21 (DE3), purified (ionic chromatography, carboxy-methylcellulose)
